According to US20130295121A1 (published 2013):

What was measured:
soluble CD16A (sCD16A) = target: T1, soluble CD16A (sCD16A) (human, UniProt P08637 17-208, biotin- or HRP-conjugated where used as the ELISA probe); assay: SPR (BIAcore), receptor immobilized
T1 construct: extracellular domain; Printed only as soluble CD16A; Also used here where an ELISA names only CD16 or CD16A; also called hCD16A; FcγRIIIA

soluble CD32A (sCD32A) = target: T2, soluble CD32A (sCD32A) (UniProt P12318 34-217, limits assumed); assay: SPR (BIAcore), receptor immobilized
T2 construct: extracellular domain; Negative control receptor in SPR; also called control receptor
T2 sequence (looked up): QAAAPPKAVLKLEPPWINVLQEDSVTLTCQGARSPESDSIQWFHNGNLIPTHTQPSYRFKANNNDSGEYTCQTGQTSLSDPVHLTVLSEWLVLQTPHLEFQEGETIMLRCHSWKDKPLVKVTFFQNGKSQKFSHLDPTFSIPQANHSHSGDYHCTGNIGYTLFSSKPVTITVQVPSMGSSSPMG

soluble CD32B (sCD32B) = target: T3, soluble CD32B (sCD32B) (human, UniProt P31994 43-217, biotinylated where used as the ELISA probe); assay: SPR (BIAcore), sCD32B immobilized, diabody 6.25-200 nM as analyte, bivalent analyte fit
T3 construct: extracellular domain; also called huCD32B; FcγRIIB
T3 sequence (looked up): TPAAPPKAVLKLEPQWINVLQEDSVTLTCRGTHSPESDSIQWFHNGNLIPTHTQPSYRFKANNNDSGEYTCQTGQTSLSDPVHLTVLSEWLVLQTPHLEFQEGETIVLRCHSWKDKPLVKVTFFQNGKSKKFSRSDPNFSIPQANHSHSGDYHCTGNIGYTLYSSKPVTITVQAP

T1 sequence (P08637 17-208): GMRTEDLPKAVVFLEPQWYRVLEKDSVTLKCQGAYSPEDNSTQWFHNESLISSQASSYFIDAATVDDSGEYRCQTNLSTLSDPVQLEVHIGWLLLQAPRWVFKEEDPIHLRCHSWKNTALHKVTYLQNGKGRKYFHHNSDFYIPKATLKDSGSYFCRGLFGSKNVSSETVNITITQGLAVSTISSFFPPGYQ

B1: h2B6 covalent monospecific diabody (CMD) (other)
chain: EIVLTQSPDFQSVTPKEKVTFTCRTSQSIGTNIHWYQQKPDQSPKLLIKEVSESISGVPSRFSGSGSGTDFTLTINSLEAEDAATYYCQQSNTWPFTFGGGTKVEIKGGGSGGGGQVQLVQSGAEVKKPGASVKVSCKASGYTFTNYWIHWVRQAPGQGLEWIGVIDPSDTYPNYNKKFKGRVTMTVVVSTSTAYMELRSLRSDDTAVYYCARNGDSDYYSGMDYWGQGTTVTVSSLGGC
notes: Homodimer of construct 4 (hu2B6VL-hu2B6VH-LGGC); also called h2B6 CMD; h2B6 diabody
For B1, the binding result (soluble CD16A (sCD16A)) was “no binding (tested: 100 nM)”, the binding result (soluble CD32A (sCD32A)) was “no binding (tested: 100 nM)” and the Kd (soluble CD32B (sCD32B)) was 21 nM.
